Results published in the DeepSol protein solubility set.

Assay: soluble on expression in E. coli; label from the status in PepcDB or PDB records

Row | Sequence | soluble on expression in E. coli
1 | GPGGALPTCPACHKITPRTEAPVSSVSNSLENALHTSAHSTEESLPKRPLGKHSKVSVEKIDLKGLSHTKNDRNVECSFEVLWSDSSITSVTKSSSEVTEFISKLCQLYPEENLEKLIPCLAGPDAFYVERNHVDLDSGLRYLASLPSHVLKNDHVRRFLSTSSPPQQLQSPSPGNPSLSKVGTVMGVSGRPVCGVAGIPSSQSGAQHHGQHPAGSAAPLPHCSHAGSAGSALAYRTQMDTSPAILMPSSLQTPQTQEQNGILDWLRKLRLHKYYPVFKQLSMEKFLSLTEEDLNKFESLTMGAKKKLKTQLELEKEKSERRCLNPSAPPLVTSSGVARVPPTSHVGPVQSGRGSHAAELRVEVEQPHHQLPREGSSSEYSSSSSSPMGVQAREESSDSAEENDRRVEIHLESSDKEKPVMLLNHFTSSSARPTAQVLPVQNEASSNPSGHHPLPPQMLSAASHITPIRMLNSVHKPERGSADMKLLSSSVHSLLSLEERNKGSGPRSSMKVDKSFGSAMMDVLPASAPHQPVQVLSGLSESSSMSPTVSFGPRTKVVHASTLDRVLKTAQQPALVVETSTAATGTPSTVLHAARPPIKLLLSSSVPADSAISGQTSCPNNVQISVPPAIINPRTALYTANTKVAFSAMSSMPVGPLQGGFCANSNTASPSSHPSTSFANMATLPSCPAPSSSPALSSVPESSFYSSSGGGGSTGNIPASNPNHHHHHHHQQPPAPPQPAPPPPGCIVCTSCGCSGSCGSSGLTVSYANYFQHPFSGPSVFTFPFLPFSPMCSSGYVSAQQYGGGSTFPVVHAPYSSSGTPDPVLSGQSTFAVPPMQNFMAGTAGVYQTQGLVGSSNGSSHKKSGNLSCYNCGATGHRAQDCKQPSMDFNRPGTFRLKYAPPAESLDSTD | soluble
2 | MGSDKIHHHHHHMNKDLKAIKWFITTQILKDPFNPAYATFKVTSRCNLRCTFCSPSYYSGELGEGSTERVKKIIDNLRDSSIVVLSFEGGEPTYRPDILDLLEYAHDGSFYIMLTTNGYRLKDEDFLTKLADKIDFLHYSIDEYHWNVKELENLCRFRKYGLKVNVQTVVTRYNLYKLEEKVRKVAECGYKILAMPAVDYPNSKVKLAPDPYEFYKVLYDLKRKYGSTLNNSWGFINAIIGKVPKRVVSYAITIYPNGDLPYPDDINGEIVGNVAEEPLNKILQSSKVKELQQKMLENQAKFEYLHLQTASFNNIRDLASYVSEMLRWRFTGRA | not soluble
3 | MSKSPDAFRTISEVAEWLGVQAHVLRFWESKFNQVKPVKRAGGRRYYRPADMQLLGGIKKLLHDDGMTIKGVQKLLREQGVAHVAEQSQD | not soluble
4 | MSLATISKITVQKKAKQRYNVFIGKPGAERFAFSVDEAILVKYGLRKGLELDENEIKALIEADELKKTHHLALHYLSYRMRTEKEIRDYLKEKDRLDEHIEKTIVSLKAEKLIDDRAFAEAFARSKTAQTLIGPNKIRQQLLQKGVNAEAMAKALSPYQIKWQIDVLTAWLDKQERRAVNRRESNEQLKQKRTHQLLAKGFEYEAIQAALANREANEDNEWEALVYQGEKLLKSYVKKYNGRELTYKLKQALYRKGFALSKIDRFLQTEMEGEEGHHHHHH | soluble
5 | MSLKNQIEKLLENFVPEGQQEKTDFKVFQDFAADEKNLNRSSIAHFTASVFVLNESHDKILGIYHKIYQSWGWVGGHADGNADLLAVAVKEVQEETGLRSFKKLSEMPISIEALPVFGHHHRKYGYVSAHIHLNVTFLFEAKESDSLQKNTDETGGLAWIPLEKFSEKSSEKEMRVIYDKIITRIINKEGHHHHHH | soluble
6 | MNKEERAKRQSKIRNFSIIAHIDHGKSTLADRILEKTNALTQREMKAQLLDSMDLERERGITIKLNAIQLNYKAKDGEEYILHLIDTPGHVDFTYEVSRSLAACEGAILVVDAAQGIEAQTLANVYLALDNNLEILPVINKIDLPSADPERVRQEVEDVIGLDASEAVLASAKAGIGIEEILEQIVEKVPAPTGDSEEPLQCMIFDSLYDPYRGVIAYIRVVNGTVKVGDKVRMMATGKEFEVTEVGVFTPKTTQRDELTVGDVGFLAASIKNVGDTRVGDTITHAKRPAAEPLAGYRKLNPMVFCGLYPIDSARYNDLRDALEKLELNDSALEFEPETSQALGFGFRCGFLGLLHMEILQERIEREFKIDLITTAPSVIYKVFLTNGEDMIVDNPSNMPDPQTIDRVEEPFVKAAIMVPNDYVGAVMEICQGKRGTFIDMQYLDETRVTLTYEIPLSEIVYDFFDQLKSNTKGYASFDYELIGYKPSKLVKMDILLNSEQVDALSFIVHRDSAYDRGKVIVEKLKELIPRQQFEVPIQATIGNKVVARSTIKAMRKNVLAKCYGGDISRKRKLLDKQKEGKKRMKSVGSVEVPQEAFMAVLKMDDN | soluble
7 | MSLTSEEERAEQAMAAISQIEPTRRLFVWTLTHGIVEYGSARAPAQHNTVSPQAAIEWVVRRGEPGIFIFKDLHPFIDLAPVKRWLRDAVAGFKGTDKVLVLMSPIQQIPTELEKEVVVVEFPLPGPGELNELLNVHLSQAPDKLRILSDAGREKMVKAALGLTKDEADKVYRKAEVVSGRLTEAEVDIVLSEKKQIIKRNGILEYLEFDDEGHHHHHH | not soluble
8 | RKDMEMNINFNMSYQKNKLLSLSGEYNGMHMTASDITPIGSLYGAGQNGGDNNVVYQIVGQPLGVFYLPHCKGLKENELGGYSYDIEDLNDDGEIDFSDGGDRYIAGQATPKVTIGSNISFRYKSFDIAMQINGAFGHKIFNGTGLAYTNMSIFPDYNVLKGAPEKNIIDQNVSDYWLEKGDYVNIEHITIGYNIPMKSKAVKSLRLSAGISNLATITGYSGLTPMINSYVVSNTLGIDDKRTYPLYRTYSLGLSIQF | not soluble
9 | MGSDKIHHHHHHMSETIQPGQTAVVLGAGGFLGSHVADALSNAGYKVRLFDRNPSPFRRSDQEMIIGDLMDISQVSNAVQGAAAVYNFAAIADIDEAHDNPLGTASINVLGNMHALEASRLAGVRRFIFASSVYVYSETGSFYRASKQAAERFTETYHERYGLEYTILRYGSLYGRRSDRRNGIYRMLHEAIQQRAITYRGSGESIREYIHVEDAARMSVQILAPEFANRHLILTGQEKLRIRDVMTMISEMLPWNVDLHYDQAKPGHHYQITPYAFQPRVGRKLVLNEHVDLGQGLLDCIQEIYQQISHGNEEGGTTPSSTDNQA | not soluble
10 | MSTPHINVIGAGLAGSEAAWQIAERGIAVHLYEMRPVKQTPAHHTDKFAELVCSNSLRGNSLTNAVGVLKEEMRRLNSVIIRSADRCSVPAGGALAVDRHEFAQAVTEAVREHPNVTVFTEEIQKIPDGPTVIATGPLTSKALSEQLKQLTGEEYLYFYDAAAPIIETDSINMDKVYLKSRYDKGEAAYLNCPMTEEEFDRFYEALISAETVPLKEFEKEVFFEGCMPVEVMAKRGKKTLLFGPMKPVGLEDPKTGKRPYAVVQLRRDNQSGTLYNIVGFQTHLKWGPQKEVIQLIPGLENAEIVRYGVMHRNTFINSPNLLKPTYQYKKRKDLFFAGQITGVEGYVESAAAGLVAGLNAARLVQSKELVVFPDTTMLGSMANYITTANSKNFQPMNANFGLLPPLDTRIKDKKTRYETLAGRALESIQNFVKKMLEHHHHHH | soluble
11 | MSLAEVTVVNFGGANGDAQKAAFNKPFEAQTGNKVTAVEYNGEQAKIKAMVEAKHVNWDVVEVESGDIGRGCDEGLFEKLDWSKIAKKADLVPEAPHTCGVGFFVWSTALAYNADKLKAAPSGWADFWDVKKFPGKRGMRKGARYNLEFALMADGVPVKDVYKVLATKDGQNRAFKKLDQLKPYIQWWEAGAQPPQFLVAGDVVMSTAFNGRIDAAQREGKNLKVVWNGSIYDLDYWAIPKGTPNKALAEQYIAYTLSQKAQQEYAKHIAYGPANLAAIKALDAKTQANLPNSPENGKSAVLQNLQFWTDHGDELEQRFASWASKEGHHHHHH | soluble
12 | MTTHQDGNADGASATARTVSLDVVVVGAGTSGCYAAATVADAGYDVVIVERKDETEAGHIACGDALKGASDFPDAIPKSQLEPAFTNTDVDHGRFEIPQEDTVLEIPVPGELAVIDRWEYGRCLIEGANDSGVEFHYDTVVQDVLQDDSGRVTGVKAMRKGDPVTYEGDMVIDGAGALSILQDKTDLEAATFDTNVQYSQFCSAYREIIEVDEPVEWDDALVFKPTERSAGYLWYFPRTDTEINAGLGFQMNEEPMELVDDLKRDLQGRSEFEGAEVQDKLGAALPTRRPYDSAVAPGFMAVGDAAGHVNPTTGGGIAGAAYAGTYAAEQAIEAIEAGRTDDEAALWEYNERVMDHFGARYAALDVYNIFTTAYDVDDLMALLAALPGEKLAEALYGGSTSIGLGLKLKMAVKSIGHLGTIRDLYQTKKAADRLLEHYESYPSDRSGFEAWQRERDSIMDDIYEVTGAEPKYLEHHHHHH | soluble
13 | MNVFKTQTLLCPSGVHSRPEDHDETPFLCSKAQSVTVVAFLVARLLATLATHQMTSHTEGLRKGGGRKDTQLMKGQCSAIKVIFWPGCLPQPRMHSRLHIRSINKGGQLRPTGCNK | soluble
14 | MFPVVDDVKAKELGLEVVYNLELPLRPERQIYRNLEDLLPKDVVEKVGRLDIVGDIAIISIPDELMPRKGVIVEAIRKLYPKIKVIARRGFHTGVYRVRRLEVIWGENRLQTIHKENGVLLKIDLSKVFFNPRMKGERYRLAQLIKDGERILIPFAGVLPYALVIARFRKVDIVAVELNDEAVKLAQENVLLNKDKLKGKISIIHGDVFDVLPKLPSFDRVISPTPKGVDALALTLSKAKRFLHYYDFIHEDKLGEFKEKIIKECQKQGKECKVKVRKVADYKPHVYKVCADIEIK | soluble
15 | MGSDKIHHHHHHMKNANHRFFLRERLMKLKTTLFGNVYQFKDVKEVLAKANELRSGDVLAGVAAASSQERVAAKQVLSEMTVADIRNNPVIAYEDDCVTRLIQDDVNETAYNQIKNWSISELREYVLSDETSVDDIAFTRKGLTSEVVAAVAKICSNADLIYGAKKMPVIKKANTTIGIPGTFSARLQPNDTRDDVQSIAAQIYEGLSFGVGDAVIGVNPVTDDVENLSRVLDTIYGVIDKFNIPTQGCVLAHVTTQIEAIRRGAPGGLIFQSICGSEKGLKEFGVELAMLDEARAVGAEFNRIAGENCLYFETGQGSALSAGANFGADQVTMEARNYGLARHYDPFIVNTVVGFIGPEYLYNDRQIIRAGLEDHFMGKLSGISMGCDCCYTNHADADQNLNENLMILLATAGCNYIMGMPLGDDIMLNYQTTAFHDTATVRQLLNLRPSPEFERWLESMGIMANGRLTKRAGDPSLFF | not soluble
16 | MSLASRQAIGFIAPSLAGEFMTGVMEGILQSLRKHQYDLIAVQGAPQHLINNQLAKQHIKAWIVIIDPTGLNELATNMPAVVISAPNAGERFPLVMPDNNQSARAMVEHLIEHGHSKIAFVGNFNNSDMRDRYTVYCDVLNEHSITPNPAWVVDVGDYTEGRTEHAFYPLIANGLNFSAVVAANDQQAVGVMMALETKGYRVPHDMAVVGFDDATIAQHANPPLTTVRQQPQLLGSIAADTVIELIAGKPVSNAPIYVPTIPIWRQSCGCKDVYTGIKEGHHHHHH | not soluble
17 | MAFLPLYIPKGRRLKIVIVGGGYAGIAALVTLHRYSPDAEITLIDPGIDHLKITHLHETFRYPLSDFLVPYAFLEQRFGCRHIRSALAVDESMLCQWQRDRYLQVDDQQVPFDYLLVASGARSFTRNETDERTAADAENIVRLENFFTVSGADLLDRFLATQDRAGNTAPSCISVVGGGATGIQFLFELAGYLRRRRINHGLQLVDDNERVLQRYPGGFARYVEMRMLELDIEFYPGVCFLEQRADTVLLEDKTSGRHFELPSVLSLVFTGNRQDNLIKTNAFGQVMVDGKPLGNIFAAGDCSVYPSLGSNTMTAQSAVRKGKLAARNILRHSGVLKVLEPYLHHDLGYVVSLGPEDAVGWLAVENNVVTGVPALAIKEIVEAQYDLLLSGVDTYLVLEHHHHHH | not soluble
